In US20250019454A1 (BIOCYTOGEN PHARMACEUTICALS BEIJING, published 2025):

How the values were obtained:
[1] = molecular target: T1, ΔCRD4-TNFR2 protein (with CRD4 deletion), on CHO-S cells (human, UniProt P20333 23-461); assay: FACS on CHO-S cells with ΔCRD4-TNFR2, AF647 anti-human IgG Fc secondary
T1 construct: also called CHO-SΔCRD4-TNFR2; TNFR2 lacking CRD4
T1 sequence: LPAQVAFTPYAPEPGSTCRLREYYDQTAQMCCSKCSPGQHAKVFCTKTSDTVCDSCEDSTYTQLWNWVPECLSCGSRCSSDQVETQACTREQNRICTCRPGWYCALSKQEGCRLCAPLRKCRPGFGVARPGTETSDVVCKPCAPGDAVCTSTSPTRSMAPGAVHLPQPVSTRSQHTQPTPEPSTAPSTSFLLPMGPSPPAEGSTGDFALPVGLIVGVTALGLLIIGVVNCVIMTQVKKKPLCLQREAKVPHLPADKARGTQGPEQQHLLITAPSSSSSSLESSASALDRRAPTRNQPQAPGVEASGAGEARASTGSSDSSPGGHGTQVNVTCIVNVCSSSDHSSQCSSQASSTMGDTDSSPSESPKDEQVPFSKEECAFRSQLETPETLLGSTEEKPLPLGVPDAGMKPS
Description: (§1) TNFR2 has four cysteine rich domains (CRD). In another experiment, FACS was used to detect the binding of anti-hTNFR2 antibodies to TNFR2 proteins with different structural domains. Secondary antibody (Alexa Fluor® 647 AffiniPure F(ab′) 2 Fragment Goat Anti-Human IgG, Fcγ fragment specific, Jackson ImmunoResearch Laboratories, Inc., Cat #: 151524) was used. The fluorescence-labeled secondary antibody can attach to the Fc region of the anti-hTNFR2 antibodies so that the anti-hTNFR2 antibodies that are bound to the ΔCRD cells can be detected by FACS. Specifically, ΔCRD1-TNFR2 protein (with CRD1 deleteion), ΔCRD2-TNFR2 protein (with CRD2 deleteion), ΔCRD3-TNFR2 protein (with CRD3 deleteion) or ΔCRD4-TNFR2 protein (with CRD4 deleteion) were expressed in CHO-S cells respectively, and then the binding between the cells and different anti-hTNFR2 antibodies was detected.

[2] = molecular target: T2, ΔCRD2-TNFR2 protein (with CRD2 deletion), on CHO-S cells (human, UniProt P20333 23-461); assay: FACS on CHO-S cells with ΔCRD2-TNFR2, AF647 anti-human IgG Fc secondary
T2 construct: also called CHO-SΔCRD2-TNFR2
T2 sequence: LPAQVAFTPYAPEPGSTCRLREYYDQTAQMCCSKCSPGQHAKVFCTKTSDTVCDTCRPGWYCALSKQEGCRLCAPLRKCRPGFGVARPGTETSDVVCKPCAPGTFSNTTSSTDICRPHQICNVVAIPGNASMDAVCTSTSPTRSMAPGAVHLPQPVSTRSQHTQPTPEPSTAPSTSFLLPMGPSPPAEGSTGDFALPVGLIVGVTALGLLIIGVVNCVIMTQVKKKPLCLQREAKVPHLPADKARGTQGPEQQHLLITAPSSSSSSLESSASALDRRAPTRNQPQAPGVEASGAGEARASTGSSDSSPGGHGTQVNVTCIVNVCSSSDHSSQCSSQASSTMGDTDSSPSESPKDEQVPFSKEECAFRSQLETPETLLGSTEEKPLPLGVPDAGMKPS
Description: as §1

[3] = molecular target: T3, ΔCRD3-TNFR2 protein (with CRD3 deletion), on CHO-S cells (human, UniProt P20333 23-461); assay: FACS on CHO-S cells with ΔCRD3-TNFR2, AF647 anti-human IgG Fc secondary
T3 construct: also called CHO-SΔCRD3-TNFR2; TNFR2 lacking CRD3
T3 sequence: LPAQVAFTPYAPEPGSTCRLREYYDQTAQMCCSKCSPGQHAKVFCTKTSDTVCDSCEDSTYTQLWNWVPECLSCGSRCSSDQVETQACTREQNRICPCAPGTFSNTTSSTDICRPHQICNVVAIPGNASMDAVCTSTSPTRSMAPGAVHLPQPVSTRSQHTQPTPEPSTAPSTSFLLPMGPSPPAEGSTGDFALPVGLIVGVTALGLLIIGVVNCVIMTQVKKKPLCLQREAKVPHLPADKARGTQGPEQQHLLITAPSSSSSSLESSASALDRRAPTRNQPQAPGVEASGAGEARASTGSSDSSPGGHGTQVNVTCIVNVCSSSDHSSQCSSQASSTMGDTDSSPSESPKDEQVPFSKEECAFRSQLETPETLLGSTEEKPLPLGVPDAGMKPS
Description: as §1

[4] = molecular target: T3, ΔCRD3-TNFR2 protein (with CRD3 …); assay: FACS on CHO-S cells with ΔCRD3-TNFR2
Description: as §1

[5] = molecular target: T4, ΔCRD1-TNFR2 protein (with CRD1 deletion), on CHO-S cells (human, UniProt P20333 23-461); assay: FACS on CHO-S cells with ΔCRD1-TNFR2, AF647 anti-human IgG Fc secondary
T4 construct: also called CHO-SΔCRD1-TNFR2
T4 sequence: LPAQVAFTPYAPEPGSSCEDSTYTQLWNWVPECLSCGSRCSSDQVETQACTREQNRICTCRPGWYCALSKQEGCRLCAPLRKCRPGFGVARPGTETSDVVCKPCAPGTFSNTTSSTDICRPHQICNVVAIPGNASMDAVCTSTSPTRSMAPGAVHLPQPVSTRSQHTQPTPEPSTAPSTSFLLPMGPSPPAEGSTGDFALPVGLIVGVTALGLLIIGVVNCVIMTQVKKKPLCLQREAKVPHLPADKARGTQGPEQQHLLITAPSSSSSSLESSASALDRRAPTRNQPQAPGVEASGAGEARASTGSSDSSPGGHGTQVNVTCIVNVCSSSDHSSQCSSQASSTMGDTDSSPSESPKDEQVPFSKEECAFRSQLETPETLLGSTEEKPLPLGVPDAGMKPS
Description: as §1

[6] = molecular target: T1, ΔCRD4-TNFR2 protein (with CRD4 …); assay: FACS on CHO-S cells with ΔCRD4-TNFR2
Description: as §1

B1: BC-1B6-IgG1-LALA (antibody, V domains shown)
VH: QVQLVESGGGVVQPGRSLRLSCAASGFTFSNFGMHWVRQAPGKGLEWVAVIWYEGSDKYYADSVKGRFTISRDNSKNTLYLQMNSLRAEDTAVYYCARDSSWGFLLYGMDVWGQGTTVTVSS
VL: DVVMTQSPLSLPVTLGQPASISCRSSRSLEYSDGNTYLNWFQQRPGQSPRRLIYKVSNRDSGVPDRFSGSGSGTAFTLKISGVEAEDVGVYYCMQGTHWPPTFGGGTKVEIK
positive rate of binding (% of cells) [1]: 0.83% | positive rate of binding (% of cells) [2]: 75.6% | positive rate of binding (% of cells) [3]: 0.44% | binding result [4]: no binding | positive rate of binding (% of cells) [5]: 66.5% | binding result [6]: no binding
